According to the supplement of paper PMC9170038:

System: MS2 coat protein
Experiment: apparent KD of MS2 coat protein; designed switch direction (-1 OFF switch, 1 ON switch): -1; higher = weaker reporter binding
In short: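 Normalised cluster fluorescence was curve-fitted, and each design's median over clusters is its apparent KD. Before this, SNAP-549-labelled MS2 coat protein was titrated from 0.7 or 1.5 nM, doubling to 3 µM, over RNA switches transcribed on Illumina chips by stalled E. coli RNA polymerase. Titrations had no input, 200 uM small-molecule ligand, or an oligonucleotide input, and steps lasted 0.8–1.5 h (lowest) to 10–20 min (highest).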

[1] = input ligand: microRNA oligo, concentration not stated
[2] = Eterna round: R95, input ligand: FMN 200 uM
[3] = Eterna round: R95, input ligand: microRNA oligo, concentration not stated
[4] = Eterna round: R95, input ligand: none

Sequence	apparent KD of MS2 coat protein (input ligand: FMN 200 uM)	apparent KD of MS2 coat protein [1]	apparent KD of MS2 coat protein (input ligand: none)	apparent KD of MS2 coat protein [2]	apparent KD of MS2 coat protein [3]	apparent KD of MS2 coat protein [4]
UGAUCAGACCGAGGAUAUAUAUGGAGGACCCACGUGAGUGGGUCCACUACAUGAGGAUCACCCAUGUAGAAGGCGGUCUGAUCU [JL ENG2 1.86] (Eterna round: R96, puzzle: Exclusion NG 2)	29.5 nM	9.64 nM	13.3 nM			
GUCGUGUUAGGAUAUGGCAACUACUAAUAAAUUAGUAGUUGUUAGAAGGAACAUGAGGAUCACCCAUGUAUGAC [-23, -22.5 kcal, A 34%] (Eterna round: R97, puzzle: Exclusion 4)	122 nM		39.9 nM			
CGCUAGUCAGGAUAUACGAACAUGUCAAAAGACGUGAAGGGACAUGAGGAUCACCCAUGUAGAAGGGACUAGCC [salish99_ex2_r3_011] (puzzle: Exclusion 2)				111 nM	21.3 nM	25.8 nM
GAUUAUGCGAGCUUUAGGGACAUGAGGAUCACCCAUGUUCGUCUUAUUGGUCUAGGUACGCUAACAUACCUAAAUCU [JMF 4] (puzzle: Sensor v3, turn-off variant 1)				22.6 nM	37.4 nM	23.4 nM
CUAAAUCAUGUAGGAUAUGCGUGGCAAAGCUAUGCAGAAGGACAUGAGGAUCACCCAUGUCAUUCCGUCUGGAAACAGACGGGA [Mat - Exclusion NG 1 - Mod of JL - D53] (Eterna round: R96, puzzle: Exclusion NG 1)	283 nM	18.1 nM	22.8 nM			
ACAUGAGGAUCACCCAUGUCCGGCUGGUCCGUCUCGGCUGUCGAGGAUAUAGCUCGGUGUCCGCGCUAGAAGGCGGGAGCUGGC [Aenatbe mod 67] (Eterna round: R96, puzzle: Exclusion NG 3)	91.5 nM	49.8 nM	85.1 nM			
ACGAUGACAGAAAGAAGUCAAAAGACAUGAGGAUCACCCAUGUAGGAUAUGGCUACGAAAAGUAGUCAGAAGGACAUGUCAUCA [Omei Exc(NG) 3 Av3] (Eterna round: R96, puzzle: Exclusion NG 3)	13.5 nM	8.79 nM	16.8 nM			
AAGAAACAUGAGGAUCACCCAUGUGAGGAUAUGAAAAAGAAAAGAAAAGAAAGAAGAUUCAGAAGGCACAAAGG [salish99-ex1_r3_021] (puzzle: Exclusion 1)				60.7 nM	31.9 nM	33.9 nM
AAUACAAGCUAUUGAUCCCACAUGAGGAUCACCCAUGUAGGUGGCCGUGAGACCACCUUUACGAUAGCUCGUCUUAU [Sensor-V1 #51] (Eterna round: R97, puzzle: Sensor, turn-off variant 1)	277 nM		274 nM			
AUACUCGUAGGAUAUGGCAAGCUGAACAUGAGGAUCACCCAUGUGUUCUACAGAUCUGGGUUAGAAGGACGUUAUU [Eternabot (L2) Solution 39] (Eterna round: R97, puzzle: Exclusion 5)	49.3 nM		59.7 nM			
GUUUAGUGAGGAUAUAAGGCUUCGAUCGAGCGCGGUCUGCUACAGAAGGCACAUGAGGAUCACCCAUGUUUCUC [salish99_ex4_r4_311] (Eterna round: R97, puzzle: Exclusion 4)	29.2 nM		34.4 nM			
UUUUUCUCAGGAUAUACAUGAGGAUCACCCAUGUAUAUUAAAAAUAAUACAUGGGAAUGUAGAAGGGAGCUCAU [Omei Ex3 Pseudoloop 9] (Eterna round: R97, puzzle: Exclusion 3)	141 nM		161 nM			
CUAGUAUAUCAGGAUAUGAUUUUAUAUAGUGGAUCAGAAGGGAUAACAUGAGGAUCACCCAUGUUAAGGAGUGA [JR_Ex6_Sub041] (Eterna round: R97, puzzle: Exclusion 6)	129 nM		49.9 nM			
ACCGGUGUUGCGGAUAAGCUUUUCUGCUCGUUUUAUCGCACAUGAGGAUCACCCAUGUCAUCCGUCAGCAUGCAAAC [Usveen] (puzzle: Sensor v3, turn-off variant 2)				22.6 nM	38.8 nM	25.1 nM
AAUAACAGAGGAUAUACUAUUUUAUGUGUUUGUUGUUUUGAACAUGAGGAUCACCCAUGUAGAAGGCUGAGUAA [JMF 40] (puzzle: Exclusion 2)					24.2 nM	
AUAAGCUUUGAGAUCCUUAACAUGAGGAUCACCCAUGUUCGUCUUAUGAUGGUCUGAUCCCUGAGGAUCGGACCGUC [JL-sv1-2.01 Brourd Mod] (puzzle: Sensor v3, turn-off variant 1)				456 nM	13.5 nM	416 nM
AGACAGUCAGGAUAUACAUGAGGAUCACCCAUGUUGAGAUGAGAAAGGGCAGGAAUAGGUAGAAGGGACGAGAG [JR_Exclu3_Sub037] (puzzle: Exclusion 3)				30.5 nM	20.1 nM	26.2 nM
GGUGGACAUGAGGAUCACCCAUGUGAGGAUAUCGGCUAUCUACUCGCUGACGGUUGCUCGAGAAGGCACAUUGU [Exclusion 1 V92] (puzzle: Exclusion 1)					90.9 nM	

Sequence	apparent KD of MS2 coat protein (input ligand: FMN 200 uM)	apparent KD of MS2 coat protein [1]	apparent KD of MS2 coat protein (input ligand: none)	apparent KD of MS2 coat protein [2]	apparent KD of MS2 coat protein [3]	apparent KD of MS2 coat protein [4]
ACCGAAGCAGGAUAUACAUGAGGAUCACCCAUGUGCUUGCAUGGCGUGGGAAGUCAUAGUAGAAGGGCUACGCC [Onzaza] (Eterna round: R97, puzzle: Exclusion 3)	53 nM		22.4 nM			
GUUUCACAUGAGGAUCACCCAUGUGAGGAUAUGAAUUUGUUAACCGUAGUUAAUAGAUUCAGAAGGCGCGUGAU [JRxlusion 1- Jieux - Exclusion 1] (Eterna round: R97, puzzle: Exclusion 1)	66.6 nM		70.3 nM			
UCGGCGCGAGGAUAUGCGGUUCCUUCUUCGGGCCGGAGCGUACAUGAGGAUCACCCAUGUAGAAGGCGCGCCGC [Apr-15 SS2-37] (puzzle: Exclusion 2)					12.6 nM	
AAAUACAAGCAAAGAUCCUACAUGAGGAUCACCCAUGUGUUCGUCUUAUAAAGUACUAUCACGAAAGUGAUAGUACA [Sensor 3, v1 - 18] (puzzle: Sensor v3, turn-off variant 1)				309 nM	1100 nM	198 nM
CGAUGCUCGAGUCGACAUGAGGAUCACCCAUGUAGAGUUAGCGAGGAUAUCGGAGACACAUAGUAUGAGAAGGCGCGAACCUGA [Ex NG3 #19] (Eterna round: R96, puzzle: Exclusion NG 3)	36.2 nM	12.3 nM	16.7 nM			
CGAUGUGGAGUGAGGAUAUCGUGUUCGAAAGAACGUGAGAAGGCACAUGAGGAUCACCCAUGUGAUACAUGUCG [Omei Ex4B A16] (Eterna round: R97, puzzle: Brourd's mod of Exclusion 4)	92.2 nM		24.6 nM			
UCCAUGUCAGGAUAUCCUAGCGCAAAGUUGCCCGCGCUGCUGGAGAAGGGACAUGAGGAUCACCCAUGUCUACA [EX4 C.10] (Eterna round: R97, puzzle: Exclusion 4)	76.8 nM		23.2 nM			
CUAGCAAUUGUAGGAUAUCGAUGUGUUUCACAUCGAGAAGGACAUGAGGAUCACCCAUGUGAAAGGAUCGUGAGAUCCAGCUAG [JL ENG1 3.75] (Eterna round: R96, puzzle: Exclusion NG 1)	96.7 nM	23.1 nM	30.3 nM			
GGAAAAGCAGGAUAUACAUGAGGAUCACCCAUGUAGGCUCGCCGAGACGUGGAUGGACGUAGAAGGGCUAUUCC [Eternabot (L1) Solution 65] (Eterna round: R97, puzzle: Exclusion 3)	121 nM		28.9 nM			
GUCGAGUGAGGAUAUGGUGAGUAGUGCCUGAGCGCUGCUCACCAGAAGGCACAUGAGGAUCACCCAUGUAUAGC [JL-ex4-2.05 denovo] (puzzle: Exclusion 4)					15.5 nM	
AUGAGGUUAGGAUAUACAUGAGGAUCACCCAUGUUGAAGGGUUAGGUAGGCGGAGCUGGUAGAAGGAACGGAGC [JR_Exclu3_Sub057] (puzzle: Exclusion 3)					38.8 nM	
UCAAGUCCAUAGGAUAUCGACCAGUCCUCUGGAUGAGAAGGAUGAACUUGAGGAUCACCCAAGUGGCCGAAUAA [Aesin] (Eterna round: R97, puzzle: Exclusion 6)	152 nM		46.3 nM			
GAUUAUGCGAGCUUUAGGGACAUGAGGAUCACCCAUGUUCGUCUUAUUGGUCUAGGUACGCUGACAUACCUAAAUCU [JMF 101] (puzzle: Sensor v3, turn-off variant 1)				20.9 nM	32.2 nM	23.7 nM
CCAAGCUUUUUCAUUAACAACAUGAGGAUCACCCAUGUUUAAGCUAUUACUUUUGGGCUCUUUAGUGCUCGUCUUAU [JR_STOV1_Sub040] (Eterna round: R97, puzzle: Sensor, turn-off variant 1)	14.4 nM		13.9 nM			
UGAUCUAGCGGAGGAUAUACAUGAGGAUCACCCAUGUAGAUGAGUGUACCGUAGUGCACUCUUGUGUAGAAGGCCGCUAGAUCU [JL ENG2 3.56] (Eterna round: R96, puzzle: Exclusion NG 2)	24.8 nM	12.6 nM	16.7 nM			
GCUGGUCAAGGAUAUACAUGAGGAUCACCCAUGUGAUCAGCAGUCCUCGGACUGCAAUGUAGAAGGUGACCAGC [E3/1-C1] (Eterna round: R97, puzzle: Exclusion 3)	29.3 nM		458 nM			
UUUUAGCUAGGAUAUACAUUUUUUUUAUUAUCCUCAUUAUUACAUGAGGAUCACCCAUGUAGAAGGAGCAUUUU [My Design] (puzzle: Exclusion 2)					219 nM	
